Measurements taken from US20060142546A1, “Immunogenic muc1 glycopeptides” (priority 2002, published 2006).
Blank lines part the entries; values can stand above or below the compound they belong to. Where a SMILES comes first, the peptide text is derived from it. Where no end group is shown, it is not given here. The star is where a group is joined. Cbz = O=C(OCc1ccccc1)*; CH2F = FC*

Key:
human cathepsin L = target: T1, human cathepsin L (Homo sapiens, UniProt P07711); assay: In vitro proteolysis of native MUC1 and MUC1 (glyco)peptides with human cathepsin L; type: biochemical; details: for proteolysis by cathepsin L: 3 h or 24 h
T1 construct: in the cathepsin L preparation from human liver; purchased Sigma (München, Germany); host or cells: human liver
Protocol: FIG. 4: In vitro proteolysis of MUC1 glycopeptide A3 by human cathepsin L. N-terminally free or biotinylated MUC1 glycopeptide A3 (10 μg) were treated for 3 h with 1 milliunit of cathepsin L in the presence or absence of the cathepsin L/B-specific cysteine protease inhibitor Z-Leu-Leu-Leu-fluoromethyl ketone (1 μM) using 0.1M sodium acetate, pH 5.5, containing 1 mM EDTA, and 1 mM DTT as reaction buffer.
Human cathepsins L and D were purchased from Sigma (München, Germany) and solubilized in 0.1 M sodium acetate buffer, pH 5.5, containing 1 mM EDTA (cathepsin D) and 1 mM dithiotreitol (cathepsin L). 2-5 units of enzyme(s) were added to 100 μg of mucin or recombinant fusion protein or to 10 μg of (glyco)peptide substrates in a total volume of 20 μl digestion buffer (see above). The reaction mixtures were incubated at 37° C. and 2 μl were withdrawn after 3 h or 24 h and diluted 20 fold in 0.1% aqueous TFA prior to MALDI mass spectrometry. In case of native MUC1 samples with complex O-glycosylation (MUC1 from tumor ascites, HMFG-MUC1, partially deglycosylated HMFG-MUC1, and MFP6 fusion protein) the digest was desalted by solid-phase extraction (ZipTip C18) and the (glyco)peptides were deglycosylated by β-elimination/ethylaminylation in 70% ethylamine at 50° C. as previously described (Müller and Hanisch, J. Biol. Chem. 277 (2002), 26103-26112). Each glycosylated position in the peptide fragments corresponds to the addition of a 27 u mass increment.

[1] = tested on: Cathepsin L-like activity in low-density endosomes from mouse dendritic cells; assay: Proteolysis of TAP25 by low-density endosomal fractions from mouse dendritic cells; type: biochemical; details: 1 μM inhibitor, TAP25 as substrate
Protocol: Mouse dendritic cells (10^8) were homogenized by fine-needle aspiration on ice using 1 ml of 0.3 M sucrose, 0.01 M Hepes as buffer (without protease inhibitors). After dilution to 7 ml and centrifugation at 850 g for 10 min to remove intact cells and nuclei, 6 ml of the supernatant were centrifuged over 24 ml of 30% Percoll with 0.3 M sucrose, 0.01 M Hepes for 105 min at 20.000 rpm in a centrifuge (model J2-21 M/E, rotor: JA-20, Beckman instruments, München, Germany) (Barnes et al., J. Exp. Med. 181 (1995), 1715-1727). The gradient was fractionated by gravity siphon (30×1 ml) and each fraction was analysed after sonication for the presence of MHC class II molecules by enzyme immunoassay with anti-H2 antibody (rat hybridoma cell line M1/42.3.9.8.HLK obtained from the ATCC), β-hexosamimidase activity (Barnes et al., 1995) and cathepsin L related proteolytic activity using TAP25 peptide as substrate (5 μg). The samples were incubated for 24 h at 37° C., diluted 20 fold in aqueous TFA and analysed by MALDI mass spectrometry. For specific inhibition of cathepsin L activity, the corresponding fractions were mixed with 1 μM Z-Leu-Leu-Leu-fluoromethyl ketone (Sigma).

[2] = tested on: human immature dendritic cells; assay: Processing of MUC1 antigen by human monocyte-derived dendritic cells (antigen pulse, MALDI/LC-MS of fragments); type: cell-based; details: cellular lysate or culture supernatant, mass range up to 8 kDa
Protocol: Human immature DCs were pulsed with native, N-terminally unmodified, soluble antigens, while the mature mouse DCs had to be fed with particulate antigen to reach sufficient antigen load. […] Simultaneously, the maturation process of the cells was induced by addition of 20 ng/ml tumor necrosis factor (TNF-α; Sigma-Aldrich, Munich, Germany) and 10 μg/ml of anti-CD40 antibody (Pharmingen, San Diego, Calif.). The cells were finally separated from medium by centrifugation, washed in PBS and both fractions were analysed for the presence of peptide/glycopeptide fragments according to the protocol described below.
The human or mouse dendritic cell fractions were treated on ice for 15 min with 100 μl 1% NP40, 10 mM Tris-HCl, 150 mM NaCl, pH 8.0 containing a cocktail of protease inhibitors (Sigma P8340, München, Germany) followed by ultrasonication for 2 min. […] To avoid selection of product subfractions by affinity-isolation, in most experiments the peptides were enriched by solid-phase extraction on reversed-phase columns.
Peptides and glycopeptides contained in the cell-free supernatants were affinity-isolated by solid-phase extraction on reversed-phase supports (100 μg polysphere C18, 50 μl Poros C18). […]

T1 sequence (P07711 114-288 limits assumed): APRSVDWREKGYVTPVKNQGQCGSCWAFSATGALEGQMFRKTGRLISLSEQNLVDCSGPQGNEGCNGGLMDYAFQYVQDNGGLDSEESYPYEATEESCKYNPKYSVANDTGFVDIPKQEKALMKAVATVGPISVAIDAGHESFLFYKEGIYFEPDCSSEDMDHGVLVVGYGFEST
T1 sequence (P07711 292-333 limits assumed): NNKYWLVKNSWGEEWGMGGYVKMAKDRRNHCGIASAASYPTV

Compound: GalNAc-MUC1: partially deglycosylated HMFG-MUC1
structural assignment of repeat fragment ion (human cathepsin L; Table 3, native mucin, after de-O-glycosylation/ethylaminylation): GVT20 + 1-4 HexNAc
proteolysis by cathepsin L (human cathepsin L; pH 5.5, 1 mM DTT, 37° C.): fragmentation by cathepsin L at low efficiency

Compound: GST20-AES (GSTAPAAHGVTSAPESRPAP; also: glycosylated, sites not given here)
structural assignment of product (human cathepsin L; Table 2, 3 h, 37° C., pH 5.5): SAP9
Average mass of production (mass range 500-4500 Da) (human cathepsin L; Table 2, synthetic monomeric repeat peptides, N-terminally unmodified, 3 h, 37° C., pH 5.5, 1 mM DTT): 910.8 Da
cleavage (human cathepsin L; standard conditions for cysteine proteases, incubation 3 h): 80%

Compound: Asc-MUC1: MUC1 from pooled human tumor ascites
proteolysis by cathepsin L (human cathepsin L; pH 5.5, 1 mM DTT, 37° C.): not digested
fragmentation of antigen [2]: No fragmentation

Now from value to compound, other results behind:

proteolysis by cathepsin L (human cathepsin L; pH 5.5, 1 mM DTT, 37° C.): not digested
Compound: HMFG-MUC1: mucin from human milk fat globule membranes

inhibition of catalytic activity directed to the Thr-Ser bond (human cathepsin L; inhibitor 1 μM, substrate glycopeptide A3): specifically inhibited
Compound: CC(C)C[C@H](NC(=O)[C@H](CC(C)C)NC(=O)[C@H](CC(C)C)NC(=O)OCc1ccccc1)C(=O)CF [Z-Leu-Leu-Leu-fluoromethyl ketone, reference compound] (Cbz-Leu-Leu-Leu-CH2F)
inhibition of cysteine protease in low density endosomes [1]: inhibitable

proteolysis by cathepsin L (human cathepsin L; pH 5.5, 1 mM DTT, 37° C.): stable to proteolysis
Compound: AHGVTSAPESRPAPGSTAPAA (not fully specified (residue 5); also: GalNAc glycan at Thr5 (H4), Ser10 (H5) or Thr17 (H6), which one is not fixed for this name, biotinylated)
